# B1: ZTS-182m6 (antibody, V domains shown)
# VH: EVQLVESGGDLARPGGSLKLSCVVSGFTLTQYGINWVRQAPGKGLQWVTVIWATGATDYNSALKSRFTVSRDNAMNTVYLQMNSLRVEDTAVYYCARDGWWYATSWYFDVWGQGTLVTVSS
# VL: DIVMTQTPLSLSVSPGEPASISCKASQDINHYLNWFRQKPDGTVKLLIYYTTRLQAGVPSRFSGSGSGTDFTLRISRVEADDAGVYYCQQGDHFPRTFGQGT
# How the values were obtained:
# NGF (species not stated) = experiment: cell-based or functional assay
# rat NGF (rat) = rat NGF (rat) (UniProt P25427); experiment: cell-based or functional assay
# [1] = target: canine beta-NGF (cNGF) (canine); experiment: SPR (Biacore), cNGF binding
# [2] = target: canine beta-NGF (cNGF) (canine); experiment: SPR (Biacore), cNGF binding; KD column of Table 7
# canine beta-NGF (cNGF) (canine), sequence (Q29074 110-229 N171T limits assumed): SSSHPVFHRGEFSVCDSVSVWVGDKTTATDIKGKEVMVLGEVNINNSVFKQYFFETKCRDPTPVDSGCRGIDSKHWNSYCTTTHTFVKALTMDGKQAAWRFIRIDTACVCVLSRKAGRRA
# rat NGF (rat), sequence (P25427 122-241 limits assumed): as the sequence (Q29074 110-229 N171T limits assumed) above, with S3T, R9M, M37T, D60A, T62N, D65E, M92T, G94D, G117A, A120G counted along it
binder,measurement,setting,value
B1,"IC50 nM (TF-1 proliferation inhibition, NGF 2.0 ng/ml)",NGF (species not stated),0.087 nM
same,"IC50 µg/ml (TF-1 proliferation inhibition, NGF 2.0 ng/ml)",NGF (species not stated),0.0131 µg/mL
same,"IC50 nM (inhibition of neurite outgrowth, PC12 cells, rat NGF 10 ng/ml; Repeat 1)",rat NGF (rat),0.26 nM
same,"IC50 nM (inhibition of neurite outgrowth, PC12 cells, rat NGF 10 ng/ml; Repeat 2)",rat NGF (rat),0.24 nM
same,"IC50 µg/ml (inhibition of neurite outgrowth, PC12 cells, rat NGF 10 ng/ml; Repeat 1)",rat NGF (rat),0.039 µg/mL
same,"IC50 µg/ml (inhibition of neurite outgrowth, PC12 cells, rat NGF 10 ng/ml; Repeat 2)",rat NGF (rat),0.035 µg/mL
same,Kd,[1],0.00434 nM
same,koff,[1],1.54e-08 s⁻¹
same,kon,[1],3560 M⁻¹ s⁻¹
same,Kd,[2],0.00434 nM

# From patent US20220106391A1
